Test: yeast display, Sf9 membrane polyspecificity reagent, FACS + sequencing; frameworks hold sequencing errors
Procedure, shortened: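 Genes from sorted yeast were amplified by colony PCR, read by MiSeq 2 × 250 sequencing and filtered on CDR length. These cells carried a synthetic nanobody library in Saccharomyces cerevisiae BJ5465 and were sorted by FACS into low and high (top ~1%) gates on anti-HA and streptavidin fluorescence. Polyreactivity is labelled according to the gate of origin.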

| Sequence | polyreactivity (PSR sort gate) |
| --- | --- |
| QVQLVESGGGLVQAGGSLRLSCAASGFNFGNYAMGWYRQAPGKERELVAVISRGGSTYYADSVKGRFTISRDYAKNSVYLQMNSLKPEDTAVYFCAARAFPPYGYDYWGQGTQVTVSS | high polyreactivity |
| QDQLVESGGGLVQAGGSLRLSCAASGSICSEYAMGWYRQAPGKERELVAAISRSGGTTYYADSVKGRFTISRDNAKNTVFLQMNSLKPEDTAVYYCAARYFRGSYPMGYWGQGTQVTVSS | high polyreactivity |
| QVQLVESGGCLVQARGSLRLSCASSGRMISYNAMGWYRQRPGKDMELGAAINSSGGSTYDADSVKGRFTISRDNAKNTVSLQMNSLKAEDTAFYYCNVLHIPSTTMDYWPQGTQVTVSS | high polyreactivity |
| QVQLVESGGGLVQAGGSLRLSCAASGSTFGYNARGWYRQAPGKEREFVARIRSSGSTTYADSVKGRFTISRDNAKNTVYLQMNSLKPEDTAVYYCAARRLYGYSPWVRFGSYDYWGQGTQVTVSS | high polyreactivity |
| QVQLVESGGGLVQAGGSLRLSCAASGSIFRLYAMGWYRPAPGKERELVATITSGGNTYADSVKGRFTISRDNAKNTVYLQMNSLKPEDTAVYYCAARYRYRGTQRPYVGYYRNDYWGQGTQVTVSS | high polyreactivity |
| QVQLEESGGGLVQAGGSLRLSCAASGITFLNYAMGWYRQATGKERELVAAISWSGGRTYYADSVKGRFTISRDNAKNTVYLQMNSLKPEDTAVYYCAVRGSWYSEHNYWGQGTQVTVSS | high polyreactivity |
| QVQLVESGGGLVQAGGSLRLSCAASGSIFDLYAMGWYRQAPGKERELVDAISSGATTNYADSVKGRFTISRDNAKNTVYLQMNSLKPEDTAVYYCAKYYRISSLYVIVSAYDYWGQGTQVTVSS | low polyreactivity |
| QVQLVESGGGLVQAGGSLRLSCAASGSIFPYNAMGCYRQAPGKEMELVAVITSSGASTYYADSVKGRFTISLDNSKNTVYLQMNSLKPEDTAVYYCAARGYNYYFGGYDYWGQGTQVTVSS | low polyreactivity |
| QVQLVESGGGLVQAGGSLRLSCAASGSIFRAYTMGWYRQAPGKERELVAAINWSGGSTYYADSVKGRFTISRDNAKNTVYLQMNSLKPEDTAVYYCAKRWASWRYDYWGQGTQVTVSS | high polyreactivity |
| QVQLVESGGGLVQAGGSLRLSCAASGSTFYSYAMGWYRQAPGTERELVAAITSRGDRTYYADSVKGRFTISRDNAKNTVYLQMNSLKPEDTAVYYCAAEQSWQGYAYYYWGQGTQVTVSS | high polyreactivity |
| QVQLVESGGGLVQAGGSLRLSCAASGRTFRAYVMGWYRQAPGKERELVAAFTGDGGSTYYADSVKGRFTISRDNAKNTVYLQMNSLKPEDTAVYYCAAGYVTVYGYYEYWGQGTQVTVSS | high polyreactivity |
| QVQLVESGGGLVQAGGSLRLSCAASGSIFFWYTMGWYREAPGKERELVATITGSGSSTTYADSVKGRFTISRDNAKNTVYLQMNSLKPEDTAVYYCAAADIIDHSFPYDYWGQGTQVTVSS | low polyreactivity |
| QVHLVESGGVLVQAGGSLRLSCAASGRIFSYYAMGWYRQAPGKEREMVAAISWTVGSTYYADSVKGRFTISRDNAINTVYLQMNSLYPEDTAVFYCAAAYGWSWYRYDYWGQGTQVTVSS | high polyreactivity |
| QVQLVETGGGLVQAGGRLRLSCAASGSIFPDYDMGWYRQAPGKQRELVAAISSSGDSTYYADSVKGRFTISRDNAKNTVYLLMNSLKPEDTAVYYCAVDGTRSTSNGSEFTGYNYWGQGTQVTVSS | low polyreactivity |
| QVQLVESVGGLVQAGGSLRLSCAASGRIFRSYTMGWYREATGKERELVAGIRASGGSTYYADSVKGRFTISRDNAKNTVYLQMNSVKPEDTAVYYCAARRYTTFGIRDYWGQGTQVTVSS | high polyreactivity |
| QVQLVESGGGLVQAGGSLRLSCAASGITFWGYVMGWYRQAPGKERELVAAISSSGGRTYYADSVKGRFTISRDNAKNTVYLQMNSLKPEDTAVYYCAAVAWQGTVQFGYWGQGTQVTVSS | high polyreactivity |

| Sequence | polyreactivity (PSR sort gate) |
| --- | --- |
| QVQLVESGGGLVQAGGSLRLSCAASGSIFRFYTMGWYRQAPGKERELVAAIRYRGTSTYYADSVKGRFTISRDNAKNTVYLQMNSLKPEDTAVYYCATRNIYFSSVDYWGQGTQVTVSS | high polyreactivity |
| QVQLVESGGGLVQAGGSLRLSCAASGTIFAKYAMGWYRQAPGKERELVAAISRSSVRTRYADSVKGRFTISRDYAKNTVYLQMNSLKPEDTAVYYCNAYYRSYAYSHLDYWGQGTQVTVSS | high polyreactivity |
| QVQLVESGGGLVQAGGSLRLSCAASGNIFWAYAMGWYRQAPGKERELVAAISGRSGSTYYADSVKGRFTISRDNAKNTVYLQMNSLKPEDTAVYYCNARPRYTSGGYDYWGQGTQVTVSS | low polyreactivity |
| QVQLVESGGGLVQAGGSLRLSCAPSGFTFRGNAMGWYRQAPGKERELVATISRGGNTNYADSVKGRCTISRDNAKNTVYLQMNSLKPEDTAVYYCAAVSFIRSKVAYNYWGQGTQVTVSS | low polyreactivity |
| QVHLVESGGGLVQAGGSLRLSCAASGRIYYRYAMGWYRTAPGKERELVAAISASGRTYYADSVKGRFTISRDNAKNTVYLQMNSLKTEDTAVYYCAKVAAGSLGSWGQGTQVTLSS | high polyreactivity |
| QVQLVESGGGLVQAGGSLRLICAASGFIFSSHAMGWYRQAPGKERELVAAISRSGGRTYYADSVKGRFTITRDNAKNTVYLQMNSLKPEDTAVYYCAAKRWWQYYWGQGTQVTVSS | high polyreactivity |
| QVQLVESGGGLVQAGGSLRLSCAASGSTIPWYAMGWYRQAPGKEREFVAAISWSSGRTYYADSVKGRFTISRDNAKNTVYLQMNSLKPEDTAVYYCAARQWAYYRDVEMGYWGQGTQVTVSS | high polyreactivity |
| QVQLVESGGGLVQAGGSLRLSCAASGSIFRLNAMGWYRQAPGKERELVAAISRNTGRTYYADSVKGRFTISRDNAKNTVYLQMNSLKPEDTAVYYCAADRSPTGYVRVYYWGQGPQVTVSS | high polyreactivity |
| QVQLVESGGGLVQAGGSLRLSCAASGYIFTYNAMGWYRQAPGKERELVAAISYSGGSTYYADSVKGRFTISRDNAKNTVYLQINSLNPEDTAVYYCNAVWRHTYGNYFWGQGTQVTVSS | high polyreactivity |
| QVQLVESGGGLVQAGGSLRLSCAASATFYYYAMGWSRQAPGKERELVAAISYSGGRTYYADSVKGRFTISRDNAKNTVYLQMNSLKPEDTAVYYCNALYRKTPSYGADDYWGQGTQVTVSS | high polyreactivity |
| QVQLEESGGGLVQAGGSLRLICAASGSTFIYNAMGWYRQAPGKERELVAAISARTGNTYYADSVKGRFTISRDNAKNTVYLQMNSLKPEDTAVYYCARRGFPRGGGPSRYYWYDYWGQGTQVTVSS | high polyreactivity |
| QVQLVESGGGLLQAGGSLRLSCAASGSIFGVNAMGWYIQAPGKERELVASITGGDSTNYADSVKGRFTISRDNAKNTVYLQINSLKTEDTAVYYCNARVADAWASGYDYWGQGTQVTVSS | low polyreactivity |
| QVQLVETGGGLVQAGGSLRLSCAASGCTFKYNTMGWYRQAPGKERELVAAITSGGGSTNYADSVKGRFTISRDNAKNTVYLQMNSLKPEDTAVYYCAAYRRNTYWGQVTQVTVSS | high polyreactivity |
| QVQLVESGGGIVQAGGSLRLSCAASGSNFVVNAMGWYRQAPGKERELVAAITQSGGSTFYADSVKGRFTISRDNAKNTVYLQMNSLIPEDTAVYYWGQGTQVTVSS | low polyreactivity |
| QVQLVESWGGLVQAGGSLRLSCAASGFIFYRYAMGWYRQAPGKERELVAVISVSGGSTYADSVKGRFTISRDNAKNTVYLQMNSLKPEDTAVYYCAARRYSYYRVHGTRHDYWGQGTQVTVSS | high polyreactivity |
| QVQLVESGGGLVQAGGSLRLSCAASGRTFRSYAMGWYRQAPGKERELVAAISSGGSTNYADSVKGRFTISRDNAKNTVYLQMNSLKPEDTAVYYCNKVVHSFRFPYRYDMDYWGQGTQVTVSS | high polyreactivity |
